# According to patent US20230357348A1 (AstraZeneca / MedImmune, published 2023):
# Starred links: 1 amine or outer side, 2 acyl side, 3 side chain; linkers in the order of their positions; H or OH if unused. Non-standard residues stand in square brackets, D forms with d. Groups on a side chain read outwards from the residue. No end group written: not given here. *: point of attachment. C20 diacid = O=C(O)CCCCCCCCCCCCCCCCCCC(=O)*; C18 diacid = O=C(O)CCCCCCCCCCCCCCCCC(=O)*; γGlu = O=C(O)[C@H](CCC(=O)[*:2])N[*:1]; αMeF = C[C@](N)(Cc1ccccc1)C(=O)O; AEEA = NCCOCCOCC(=O)O; Aib = CC(C)(N)C(=O)O
# B1: Peptide 487 (peptide)
# peptide: H[Aib]QGTFTSDVSK[αMeF]LDTK([AEEA-AEEA-γGlu-C18 diacid])RARDFVQWLL[Aib]TE-OH
# modifications: N-terminus assumed
# SMILES: CC(C)C[C@H](NC(=O)[C@H](Cc1c[nH]c2ccccc12)NC(=O)[C@H](CCC(N)=O)NC(=O)[C@@H](NC(=O)[C@H](Cc1ccccc1)NC(=O)[C@H](CC(=O)O)NC(=O)[C@H](CCCNC(=N)N)NC(=O)[C@H](C)NC(=O)[C@H](CCCNC(=N)N)NC(=O)[C@H](CCCCNC(=O)COCCOCCNC(=O)COCCOCCNC(=O)CC[C@H](NC(=O)CCCCCCCCCCCCCCCCC(=O)O)C(=O)O)NC(=O)[C@@H](NC(=O)[C@H](CC(=O)O)NC(=O)[C@H](CC(C)C)NC(=O)[C@](C)(Cc1ccccc1)NC(=O)[C@H](CCCCN)NC(=O)[C@H](CO)NC(=O)[C@@H](NC(=O)[C@H](CC(=O)O)NC(=O)[C@H](CO)NC(=O)[C@@H](NC(=O)[C@H](Cc1ccccc1)NC(=O)[C@@H](NC(=O)CNC(=O)[C@H](CCC(N)=O)NC(=O)C(C)(C)NC(=O)[C@@H](N)Cc1c[nH]cn1)[C@@H](C)O)[C@@H](C)O)C(C)C)[C@@H](C)O)C(C)C)C(=O)N[C@@H](CC(C)C)C(=O)NC(C)(C)C(=O)N[C@H](C(=O)N[C@@H](CCC(=O)O)C(=O)O)[C@@H](C)O
# B2: Peptide 485 (peptide)
# peptide: H[Aib]QGTFTSDVSK[αMeF]LDTK([AEEA-AEEA-γGlu-C20 diacid])RAQDFVQWLL[Aib]E-NH2
# modifications: N-terminus assumed
# SMILES: CC(C)C[C@H](NC(=O)[C@H](Cc1c[nH]c2ccccc12)NC(=O)[C@H](CCC(N)=O)NC(=O)[C@@H](NC(=O)[C@H](Cc1ccccc1)NC(=O)[C@H](CC(=O)O)NC(=O)[C@H](CCC(N)=O)NC(=O)[C@H](C)NC(=O)[C@H](CCCNC(=N)N)NC(=O)[C@H](CCCCNC(=O)COCCOCCNC(=O)COCCOCCNC(=O)CC[C@H](NC(=O)CCCCCCCCCCCCCCCCCCC(=O)O)C(=O)O)NC(=O)[C@@H](NC(=O)[C@H](CC(=O)O)NC(=O)[C@H](CC(C)C)NC(=O)[C@](C)(Cc1ccccc1)NC(=O)[C@H](CCCCN)NC(=O)[C@H](CO)NC(=O)[C@@H](NC(=O)[C@H](CC(=O)O)NC(=O)[C@H](CO)NC(=O)[C@@H](NC(=O)[C@H](Cc1ccccc1)NC(=O)[C@@H](NC(=O)CNC(=O)[C@H](CCC(N)=O)NC(=O)C(C)(C)NC(=O)[C@@H](N)Cc1c[nH]cn1)[C@@H](C)O)[C@@H](C)O)C(C)C)[C@@H](C)O)C(C)C)C(=O)N[C@@H](CC(C)C)C(=O)NC(C)(C)C(=O)N[C@@H](CCC(=O)O)C(N)=O
# B3: Peptide 489 (peptide)
# peptide: H[Aib]QGTFTSDVSK[αMeF]LDTK([AEEA-AEEA-γGlu-C18 diacid])RARDFVQWLL[Aib]TE-NH2
# modifications: N-terminus assumed
# SMILES: CC(C)C[C@H](NC(=O)[C@H](Cc1c[nH]c2ccccc12)NC(=O)[C@H](CCC(N)=O)NC(=O)[C@@H](NC(=O)[C@H](Cc1ccccc1)NC(=O)[C@H](CC(=O)O)NC(=O)[C@H](CCCNC(=N)N)NC(=O)[C@H](C)NC(=O)[C@H](CCCNC(=N)N)NC(=O)[C@H](CCCCNC(=O)COCCOCCNC(=O)COCCOCCNC(=O)CC[C@H](NC(=O)CCCCCCCCCCCCCCCCC(=O)O)C(=O)O)NC(=O)[C@@H](NC(=O)[C@H](CC(=O)O)NC(=O)[C@H](CC(C)C)NC(=O)[C@](C)(Cc1ccccc1)NC(=O)[C@H](CCCCN)NC(=O)[C@H](CO)NC(=O)[C@@H](NC(=O)[C@H](CC(=O)O)NC(=O)[C@H](CO)NC(=O)[C@@H](NC(=O)[C@H](Cc1ccccc1)NC(=O)[C@@H](NC(=O)CNC(=O)[C@H](CCC(N)=O)NC(=O)C(C)(C)NC(=O)[C@@H](N)Cc1c[nH]cn1)[C@@H](C)O)[C@@H](C)O)C(C)C)[C@@H](C)O)C(C)C)C(=O)N[C@@H](CC(C)C)C(=O)NC(C)(C)C(=O)N[C@H](C(=O)N[C@@H](CCC(=O)O)C(N)=O)[C@@H](C)O
# B4: Peptide 490 (peptide)
# peptide: H[Aib]QGTFTSDVSK[αMeF]LDTK([AEEA-AEEA-γGlu-C20 diacid])RARDFVQWLL[Aib]TE-NH2
# modifications: N-terminus assumed
# SMILES: CC(C)C[C@H](NC(=O)[C@H](Cc1c[nH]c2ccccc12)NC(=O)[C@H](CCC(N)=O)NC(=O)[C@@H](NC(=O)[C@H](Cc1ccccc1)NC(=O)[C@H](CC(=O)O)NC(=O)[C@H](CCCNC(=N)N)NC(=O)[C@H](C)NC(=O)[C@H](CCCNC(=N)N)NC(=O)[C@H](CCCCNC(=O)COCCOCCNC(=O)COCCOCCNC(=O)CC[C@H](NC(=O)CCCCCCCCCCCCCCCCCCC(=O)O)C(=O)O)NC(=O)[C@@H](NC(=O)[C@H](CC(=O)O)NC(=O)[C@H](CC(C)C)NC(=O)[C@](C)(Cc1ccccc1)NC(=O)[C@H](CCCCN)NC(=O)[C@H](CO)NC(=O)[C@@H](NC(=O)[C@H](CC(=O)O)NC(=O)[C@H](CO)NC(=O)[C@@H](NC(=O)[C@H](Cc1ccccc1)NC(=O)[C@@H](NC(=O)CNC(=O)[C@H](CCC(N)=O)NC(=O)C(C)(C)NC(=O)[C@@H](N)Cc1c[nH]cn1)[C@@H](C)O)[C@@H](C)O)C(C)C)[C@@H](C)O)C(C)C)C(=O)N[C@@H](CC(C)C)C(=O)NC(C)(C)C(=O)N[C@H](C(=O)N[C@@H](CCC(=O)O)C(N)=O)[C@@H](C)O
# B5: Peptide 491 (peptide)
# peptide: H[Aib]QGTFTSDVSK[αMeF]LDTK([AEEA-AEEA-γGlu-C18 diacid])RARDFVRWLL[Aib]TE-OH
# modifications: N-terminus assumed
# SMILES: CC(C)C[C@H](NC(=O)[C@H](Cc1c[nH]c2ccccc12)NC(=O)[C@H](CCCNC(=N)N)NC(=O)[C@@H](NC(=O)[C@H](Cc1ccccc1)NC(=O)[C@H](CC(=O)O)NC(=O)[C@H](CCCNC(=N)N)NC(=O)[C@H](C)NC(=O)[C@H](CCCNC(=N)N)NC(=O)[C@H](CCCCNC(=O)COCCOCCNC(=O)COCCOCCNC(=O)CC[C@H](NC(=O)CCCCCCCCCCCCCCCCC(=O)O)C(=O)O)NC(=O)[C@@H](NC(=O)[C@H](CC(=O)O)NC(=O)[C@H](CC(C)C)NC(=O)[C@](C)(Cc1ccccc1)NC(=O)[C@H](CCCCN)NC(=O)[C@H](CO)NC(=O)[C@@H](NC(=O)[C@H](CC(=O)O)NC(=O)[C@H](CO)NC(=O)[C@@H](NC(=O)[C@H](Cc1ccccc1)NC(=O)[C@@H](NC(=O)CNC(=O)[C@H](CCC(N)=O)NC(=O)C(C)(C)NC(=O)[C@@H](N)Cc1c[nH]cn1)[C@@H](C)O)[C@@H](C)O)C(C)C)[C@@H](C)O)C(C)C)C(=O)N[C@@H](CC(C)C)C(=O)NC(C)(C)C(=O)N[C@H](C(=O)N[C@@H](CCC(=O)O)C(=O)O)[C@@H](C)O
# B6: Peptide 486 (peptide)
# peptide: H[Aib]QGTFTSDVSK[αMeF]LDLK([AEEA-AEEA-γGlu-C20 diacid])RAQDFVRWLL[Aib]E-OH
# modifications: N-terminus assumed
# SMILES: CC(C)C[C@H](NC(=O)[C@H](CC(=O)O)NC(=O)[C@H](CC(C)C)NC(=O)[C@](C)(Cc1ccccc1)NC(=O)[C@H](CCCCN)NC(=O)[C@H](CO)NC(=O)[C@@H](NC(=O)[C@H](CC(=O)O)NC(=O)[C@H](CO)NC(=O)[C@@H](NC(=O)[C@H](Cc1ccccc1)NC(=O)[C@@H](NC(=O)CNC(=O)[C@H](CCC(N)=O)NC(=O)C(C)(C)NC(=O)[C@@H](N)Cc1c[nH]cn1)[C@@H](C)O)[C@@H](C)O)C(C)C)C(=O)N[C@@H](CCCCNC(=O)COCCOCCNC(=O)COCCOCCNC(=O)CC[C@H](NC(=O)CCCCCCCCCCCCCCCCCCC(=O)O)C(=O)O)C(=O)N[C@@H](CCCNC(=N)N)C(=O)N[C@@H](C)C(=O)N[C@@H](CCC(N)=O)C(=O)N[C@@H](CC(=O)O)C(=O)N[C@@H](Cc1ccccc1)C(=O)N[C@H](C(=O)N[C@@H](CCCNC(=N)N)C(=O)N[C@@H](Cc1c[nH]c2ccccc12)C(=O)N[C@@H](CC(C)C)C(=O)N[C@@H](CC(C)C)C(=O)NC(C)(C)C(=O)N[C@@H](CCC(=O)O)C(=O)O)C(C)C
# B7: Peptide 488 (peptide)
# peptide: H[Aib]QGTFTSDVSK[αMeF]LDTK([AEEA-AEEA-γGlu-C20 diacid])RARDFVQWLL[Aib]TE-OH
# modifications: N-terminus assumed
# SMILES: CC(C)C[C@H](NC(=O)[C@H](Cc1c[nH]c2ccccc12)NC(=O)[C@H](CCC(N)=O)NC(=O)[C@@H](NC(=O)[C@H](Cc1ccccc1)NC(=O)[C@H](CC(=O)O)NC(=O)[C@H](CCCNC(=N)N)NC(=O)[C@H](C)NC(=O)[C@H](CCCNC(=N)N)NC(=O)[C@H](CCCCNC(=O)COCCOCCNC(=O)COCCOCCNC(=O)CC[C@H](NC(=O)CCCCCCCCCCCCCCCCCCC(=O)O)C(=O)O)NC(=O)[C@@H](NC(=O)[C@H](CC(=O)O)NC(=O)[C@H](CC(C)C)NC(=O)[C@](C)(Cc1ccccc1)NC(=O)[C@H](CCCCN)NC(=O)[C@H](CO)NC(=O)[C@@H](NC(=O)[C@H](CC(=O)O)NC(=O)[C@H](CO)NC(=O)[C@@H](NC(=O)[C@H](Cc1ccccc1)NC(=O)[C@@H](NC(=O)CNC(=O)[C@H](CCC(N)=O)NC(=O)C(C)(C)NC(=O)[C@@H](N)Cc1c[nH]cn1)[C@@H](C)O)[C@@H](C)O)C(C)C)[C@@H](C)O)C(C)C)C(=O)N[C@@H](CC(C)C)C(=O)NC(C)(C)C(=O)N[C@H](C(=O)N[C@@H](CCC(=O)O)C(=O)O)[C@@H](C)O
# Legend:
# [1] = target: human GLP-1 receptor (hGLP-1R) (human, UniProt P43220 24-463); test: cell-based or functional assay
# [2] = target: human glucagon receptor (hGCGR) (human, UniProt P47871 26-477); test: cell-based or functional assay
# Sequence of human glucagon receptor (hGCGR) (P47871 26-477): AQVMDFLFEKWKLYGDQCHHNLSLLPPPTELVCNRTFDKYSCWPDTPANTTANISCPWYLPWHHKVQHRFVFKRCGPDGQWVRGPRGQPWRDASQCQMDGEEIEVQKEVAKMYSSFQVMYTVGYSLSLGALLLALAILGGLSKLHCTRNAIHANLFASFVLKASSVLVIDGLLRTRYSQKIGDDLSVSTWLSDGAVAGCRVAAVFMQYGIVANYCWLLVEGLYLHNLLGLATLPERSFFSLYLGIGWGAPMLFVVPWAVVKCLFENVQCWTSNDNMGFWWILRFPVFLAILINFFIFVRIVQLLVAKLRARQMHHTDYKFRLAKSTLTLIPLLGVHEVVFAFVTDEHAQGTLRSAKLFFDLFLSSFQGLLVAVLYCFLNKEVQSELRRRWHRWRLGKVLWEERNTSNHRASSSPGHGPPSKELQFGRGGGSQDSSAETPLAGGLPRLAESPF
Binder,hGLP-1R EC50 (pM) [1],hGluc-R EC50 (pM) [2]
B1,65.5 pM,164 pM
B2,219 pM,90.4 pM
B3,22.8 pM,168 pM
B4,69 pM,396 pM
B5,73.6 pM,232 pM
B6,420 pM,166 pM
B7,202 pM,301 pM
